Reference: IntAct's records for PubMed 22230954

B1: Histone deacetylase 3 (Homo sapiens), O15379 (parent)
chain: MAKTVAYFYDPDVGNFHYGAGHPMKPHRLALTHSLVLHYGLYKKMIVFKPYQASQHDMCRFHSEDYIDFLQRVSPTNMQGFTKSLNAFNVGDDCPVFPGLFEFCSRYTGASLQGATQLNNKICDIAINWAGGLHHAKKFEASGFCYVNDIVIGILELLKYHPRVLYIDIDIHHGDGVQEAFYLTDRVMTVSFHKYGNYFFPGTGDMYEVGAESGRYYCLNVPLRDGIDDQSYKHLFQPVINQVVDFYQPTCIVLQCGADSLGCDRLGCFNLSIRGHGECVEYVKSFNIPLLVLGGGGYTVRNVARCWTYETSLLVEEAISEELPYSEYFEYFAPDFTLHPDVSTRIENQNSRQYLDQIRQTIFENLKMLNHAPSVQIHDVPADLLTYDRTDEADAEERGPEENYSRPEAPNEFYDGDHDNDKESDVEI

Variants of: B1
Conditions: with ncor2_human NCOR2, Q9Y618
Sequence of ncor2_human NCOR2, Q9Y618 (Q9Y618 whole entry): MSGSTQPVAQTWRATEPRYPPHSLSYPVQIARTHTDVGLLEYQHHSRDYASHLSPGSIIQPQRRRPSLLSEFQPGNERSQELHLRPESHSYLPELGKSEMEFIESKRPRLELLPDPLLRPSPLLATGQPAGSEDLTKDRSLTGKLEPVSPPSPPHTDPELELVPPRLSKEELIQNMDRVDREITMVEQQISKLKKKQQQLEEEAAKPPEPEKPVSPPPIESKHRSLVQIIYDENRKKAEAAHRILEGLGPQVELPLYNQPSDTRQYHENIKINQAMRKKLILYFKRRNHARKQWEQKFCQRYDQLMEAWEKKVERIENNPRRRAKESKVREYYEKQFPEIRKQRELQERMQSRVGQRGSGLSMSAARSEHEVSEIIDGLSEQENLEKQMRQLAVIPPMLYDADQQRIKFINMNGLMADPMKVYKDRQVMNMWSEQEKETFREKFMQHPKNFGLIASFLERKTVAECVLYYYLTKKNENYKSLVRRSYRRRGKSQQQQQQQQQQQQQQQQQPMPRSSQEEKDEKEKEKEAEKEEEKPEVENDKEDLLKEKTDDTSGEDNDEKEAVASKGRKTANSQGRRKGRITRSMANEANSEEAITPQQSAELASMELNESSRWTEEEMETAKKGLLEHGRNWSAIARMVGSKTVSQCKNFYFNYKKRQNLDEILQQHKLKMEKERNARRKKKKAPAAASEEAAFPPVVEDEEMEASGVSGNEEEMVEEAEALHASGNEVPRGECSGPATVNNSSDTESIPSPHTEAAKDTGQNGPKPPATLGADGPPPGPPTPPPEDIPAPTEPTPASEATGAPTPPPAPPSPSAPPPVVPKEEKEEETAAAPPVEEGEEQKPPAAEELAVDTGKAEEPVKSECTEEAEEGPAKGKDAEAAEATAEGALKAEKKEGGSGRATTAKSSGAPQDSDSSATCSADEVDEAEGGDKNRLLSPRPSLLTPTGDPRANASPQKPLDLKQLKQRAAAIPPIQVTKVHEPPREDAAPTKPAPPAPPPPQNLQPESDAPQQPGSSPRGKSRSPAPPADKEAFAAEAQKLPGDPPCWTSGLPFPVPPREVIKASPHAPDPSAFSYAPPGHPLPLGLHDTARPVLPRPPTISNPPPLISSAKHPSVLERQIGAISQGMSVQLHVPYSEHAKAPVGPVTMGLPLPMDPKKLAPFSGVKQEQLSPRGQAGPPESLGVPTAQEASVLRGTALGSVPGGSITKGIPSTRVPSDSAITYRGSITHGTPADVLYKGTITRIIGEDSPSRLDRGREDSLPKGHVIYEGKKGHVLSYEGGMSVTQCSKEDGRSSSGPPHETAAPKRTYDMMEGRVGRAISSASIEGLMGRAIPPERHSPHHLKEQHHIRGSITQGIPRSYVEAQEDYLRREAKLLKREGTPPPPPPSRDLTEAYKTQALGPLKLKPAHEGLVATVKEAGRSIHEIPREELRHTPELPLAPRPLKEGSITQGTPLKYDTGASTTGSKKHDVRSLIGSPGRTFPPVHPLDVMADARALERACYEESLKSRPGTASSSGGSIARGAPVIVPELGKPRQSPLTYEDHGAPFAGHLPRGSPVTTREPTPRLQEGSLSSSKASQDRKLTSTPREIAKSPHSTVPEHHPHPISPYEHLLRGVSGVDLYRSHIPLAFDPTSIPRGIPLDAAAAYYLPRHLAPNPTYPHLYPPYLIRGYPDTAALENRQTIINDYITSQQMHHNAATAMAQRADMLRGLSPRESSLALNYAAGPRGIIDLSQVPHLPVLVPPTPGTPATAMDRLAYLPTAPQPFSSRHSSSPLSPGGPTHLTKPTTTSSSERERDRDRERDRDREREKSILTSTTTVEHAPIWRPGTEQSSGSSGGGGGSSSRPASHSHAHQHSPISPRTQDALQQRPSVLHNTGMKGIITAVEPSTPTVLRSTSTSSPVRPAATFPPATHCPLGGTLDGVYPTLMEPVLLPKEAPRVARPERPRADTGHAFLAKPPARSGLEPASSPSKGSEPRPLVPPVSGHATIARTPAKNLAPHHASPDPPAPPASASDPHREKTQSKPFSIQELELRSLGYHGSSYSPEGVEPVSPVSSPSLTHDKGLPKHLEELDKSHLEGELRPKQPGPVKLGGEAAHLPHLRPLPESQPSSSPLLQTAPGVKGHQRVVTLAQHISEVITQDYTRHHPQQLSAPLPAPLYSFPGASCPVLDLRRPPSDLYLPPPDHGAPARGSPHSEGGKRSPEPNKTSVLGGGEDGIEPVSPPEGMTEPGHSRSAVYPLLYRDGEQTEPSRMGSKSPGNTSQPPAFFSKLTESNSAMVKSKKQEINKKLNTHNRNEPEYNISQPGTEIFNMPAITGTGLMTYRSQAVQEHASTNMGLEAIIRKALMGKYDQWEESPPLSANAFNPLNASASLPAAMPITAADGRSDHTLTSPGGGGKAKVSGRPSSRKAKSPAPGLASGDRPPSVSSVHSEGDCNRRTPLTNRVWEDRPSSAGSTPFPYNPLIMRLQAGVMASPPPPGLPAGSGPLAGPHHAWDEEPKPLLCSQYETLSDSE

Variant	effect of a mutation on the interaction
R265P;L266M	disrupting interaction
H17C;G21A;K25I;R265P;L266M	disrupting interaction
H17C;G21A;K25I	disrupting interaction
R265P	disrupting interaction

Variants of: B1
Conditions: with ncor2_human NCOR2, Q9Y618
Remark: another data set of the same source

Variant	effect of a mutation on the interaction
H17C;G21A;K25I;R265P;L266M	disrupting interaction
